Results: EP4722245A1, “ANTIBODY TARGETING ITGA2, ANTIBODY DRUG CONJUGATE THEREOF, AND USE” (Foreseen Technology (Beijing) Co., Ltd., priority 2023, dated 2024)

B1: Vatelizumab-vc-MMAE: Antibody-drug conjugate of the positive control antibody Vatelizumab with vc-MMAE linker-payload (conjugate, chains of the INN, looked up)
VH: QVQLQESGPGLVKPSETLSLTCTVSGFSLTNYGIHWIRQPPGKGLEWLGVIWARGFTNYNSALMSRLTISKDNSKNQVSLKLSSVTAADTAVYYCARANDGVYYAMDYWGQGTLVTVSS
VL: DFVMTQSPAFLSVTPGEKVTITCSAQSSVNYIHWYQQKPDQAPKKLIYDTSKLASGVPSRFSGSGSGTDYTFTISSLEAEDAATYYCQQWTTNPLTFGQGTKVEIK
modifications: vc-MMAE linker-payload

Legend:
[1] = target: ITGA2 protein on the surface of human tumor cells (human) (UniProt P17301); experiment: cell-based or functional assay
[2] = system: Human epidermal cancer cells A431; experiment: ADC cancer cell killing assay (Cell-Titer-Glo 2.0); type: cell-based; settings: 5 days at 37°C, 3-fold gradient, 11 points
Procedure: Human epidermal cancer cells A431 available from Procell Life Science&Technology Co.,Ltd. (Wuhan) were seeded into a 96-well plate at 2500 cells/well. It was then incubated in a 5% CO2 incubator overnight at 37°C. Half of the medium was removed from the cell plate on the next day. A 2x hIgG1-vcMMAE (negative control ADC, provided by ChemPartner), a control antibody and the ADC prepared as the above were prepared with a complete culture medium, and then diluted at a 3-fold gradient with 11 specific concentration points in total. Serial dilutions of the above molecules were added to the appropriate wells, and it was then incubated in a 5% CO2 incubator for 5 days at 37°C. After the incubation, 100 uL of Cell-Titer-Glo 2.0 reagent was added to the 96-well plate. It was then well mixed on a plate shaker for 2 minutes, and finally equilibrated at room temperature for 10 minutes. Readings were taken using a microplate reader. Finally, IC50 was used to compare the biological activity of the ADC against each cell line.

Chain of ITGA2 protein on the surface of human tumor cells (human) (P17301 30-1181): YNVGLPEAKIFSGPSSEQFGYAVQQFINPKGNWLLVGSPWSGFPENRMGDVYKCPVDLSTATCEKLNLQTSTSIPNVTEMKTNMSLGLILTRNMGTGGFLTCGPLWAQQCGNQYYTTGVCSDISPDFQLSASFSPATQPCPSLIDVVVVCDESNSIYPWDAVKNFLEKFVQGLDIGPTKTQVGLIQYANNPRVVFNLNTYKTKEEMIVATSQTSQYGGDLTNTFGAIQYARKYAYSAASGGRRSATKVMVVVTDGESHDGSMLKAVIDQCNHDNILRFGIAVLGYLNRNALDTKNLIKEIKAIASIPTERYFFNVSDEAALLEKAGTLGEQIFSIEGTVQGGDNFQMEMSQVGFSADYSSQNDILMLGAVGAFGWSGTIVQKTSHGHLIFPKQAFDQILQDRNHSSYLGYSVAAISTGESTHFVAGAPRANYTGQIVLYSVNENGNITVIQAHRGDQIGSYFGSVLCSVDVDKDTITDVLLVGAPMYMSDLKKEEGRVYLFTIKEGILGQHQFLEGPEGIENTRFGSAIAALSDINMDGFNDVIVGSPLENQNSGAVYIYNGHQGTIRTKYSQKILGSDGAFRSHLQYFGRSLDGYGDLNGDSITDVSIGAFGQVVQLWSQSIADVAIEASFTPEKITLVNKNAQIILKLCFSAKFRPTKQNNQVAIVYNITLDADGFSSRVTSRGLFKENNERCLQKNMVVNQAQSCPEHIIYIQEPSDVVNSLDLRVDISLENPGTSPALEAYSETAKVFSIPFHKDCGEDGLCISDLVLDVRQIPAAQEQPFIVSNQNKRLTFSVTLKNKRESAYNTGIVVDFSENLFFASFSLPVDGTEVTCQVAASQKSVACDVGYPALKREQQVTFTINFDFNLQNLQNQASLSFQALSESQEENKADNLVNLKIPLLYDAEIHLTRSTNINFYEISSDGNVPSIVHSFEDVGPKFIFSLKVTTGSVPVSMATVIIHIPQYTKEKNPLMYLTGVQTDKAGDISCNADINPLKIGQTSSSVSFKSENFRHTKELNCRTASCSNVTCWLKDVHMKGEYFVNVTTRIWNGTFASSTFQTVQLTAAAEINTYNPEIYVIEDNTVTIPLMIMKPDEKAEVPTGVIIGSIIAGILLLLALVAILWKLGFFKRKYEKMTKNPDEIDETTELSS

Molecule	A431 cell killing IC50 [1] [nM]	IC50 [2] [nM]	IC50 ([2]; listed as Vatelizumab-ve-MMAE) [nM]
Vatelizumab-vc-MMAE (antibody)	0.054		
B1		0.054	< 0.1
